Results from article PMC5935710, “Structure and mechanism of the two-component α-helical pore-forming toxin YaxAB” (Nature Communications, 2018).

Assays:
YaxA [1] = molecular target: T1, YaxA (Y. enterocolitica, UniProt A1JM51 1-411); assay: SEC; purified YaxA and YaxB mixed in solution; ratio of the two in the complex from SDS-PAGE band intensities; conditions: both partners purified
T1 construct: YaxA of Yersinia enterocolitica serovar 8, biovar 1 (ATCC 23715), ORF YE1984; 45.9 kDa; native mass spectrometry verified that the full-length protein was purified; the ORF was amplified from cDNA of ATCC 23715; The pore model 6EL1 holds YaxA residues 45-153 and 169-410; also called YaxA^WT; WT YaxA; not shown: His6, N-terminal, cleaved; SUMO, N-terminal, cleaved
T1 sequence: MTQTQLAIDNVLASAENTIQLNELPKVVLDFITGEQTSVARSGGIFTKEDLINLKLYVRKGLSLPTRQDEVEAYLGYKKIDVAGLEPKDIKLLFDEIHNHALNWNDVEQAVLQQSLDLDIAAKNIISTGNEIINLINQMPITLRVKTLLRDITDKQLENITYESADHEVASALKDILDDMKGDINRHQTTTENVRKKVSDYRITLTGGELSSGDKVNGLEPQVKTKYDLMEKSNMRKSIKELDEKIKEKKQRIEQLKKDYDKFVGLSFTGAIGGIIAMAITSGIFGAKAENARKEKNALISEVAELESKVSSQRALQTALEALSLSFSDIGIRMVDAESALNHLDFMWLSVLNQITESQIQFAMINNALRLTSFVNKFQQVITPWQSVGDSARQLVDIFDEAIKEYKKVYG

[2] = molecular target: the molecule itself; assay: cryo-EM structure; 1 mg each of YaxA and YaxB mixed at room temperature, Cymal-6 treated, Superose 6, exchanged into amphipol A8-35; 2 mg/mL; C10 symmetry imposed, 6.1 Å; a C9 class at 7.6 Å
YaxA [3] = molecular target: T1, YaxA; assay: negative-stain EM; YaxA, then YaxB (1.5-fold molar excess) on human erythrocyte ghosts; pores extracted with 1.5% Cymal-6, purified on Superose 6 and a 10-40% sucrose gradient; 0.1 mg/mL on grids, uranyl formate stain; conditions: both partners purified

B1: YaxB (natural protein)
chain: MAEISTFPHSGLSYPDINFKIFSQGVKNISHLAQFKTTGVEVLQEKALRVSLYSQRLDVIVRESLSSLQVKLENTLALTYFTTLEEIDEALISQDIDEESKSEMRKERINIIKNLSNDITQLKQLFIEKTELLDKSSSDLHNVVIIEGTDKVLQAEQLRQKQLTEDIATKELERKEIEKKRDKIIEALDVIREHNLVDAFKDLIPTGENLSELDLAKPEIELLKQSLEITKKLLGQFSEGLKYIDLTDARKKLDNQIDTASTRLTELNRQLEQSEKLIAGVNAVIKIDQEKSAVVVEAEKLSRAWHIFIHEITALQGTSLNEVELSKPLIKQQIYLESLIKQLI
notes: YaxB of Yersinia enterocolitica serovar 8, biovar 1 (ATCC 23715), ORF YE1985; 39.3 kDa; the ORF was cloned behind His6 and a TEV site; the ORF was amplified from cDNA of ATCC 23715; The pore model 6EL1 holds YaxB residues 12-343; also called YE1985; not shown: His6, N-terminal, cleaved
stoichiometry N (YaxA [1]): 1 YaxA:YaxB
stoichiometry N [2]: 10
radial spokes (YaxA–YaxB dimers) per complex (YaxA [3]): 11 fold symmetry
